Measurements reported in article PMC4685956.

Molecular target: H3.2–H4 tetramer (human) (UniProt Q71DI3)
Test: SEC-MALS

**Q.** Which stoichiometry N (MCM2 HBD per H3–H4 tetramer) does the source give for “MCM2 HBD(43–160) (from UniProt P49736 43-160) (domain or fragment)” here?
**A.** 2
